From article PMC8878332

Biological target: Human plasminogen (human)
Assay: ELISA; plasminogen immobilised on plate wells (1 ug in 100 uL PBS), blocked with 1% gelatin; AdcA 0-1 uM in PBS, 1.5 h at 37 C; bound AdcA detected with rabbit anti-AdcA serum; apparent KD from the fit to total binding saturation (GraphPad Prism); MntC run as control; EACA (0.1-10 mM) or NaCl (25-800 mM) added in further panels

Substance “Staphylococcus aureus zinc transport protein AdcA, recombinant full-length protein (natural protein)” has a Kd of 45.1 nM.
